The values below come from patent publication US20260274985A1 (MYTHIC THERAPEUTICS, published 2026).

For assay [1], the target named is T1, Human TROP2 Protein, His Tag (Acro Biosystems) (human, UniProt P09758 27-274).
T1 construct: Bought antigen used at 50 nM in the Octet screen; also called TACSTD2; not shown: His tag
T1 sequence (looked up): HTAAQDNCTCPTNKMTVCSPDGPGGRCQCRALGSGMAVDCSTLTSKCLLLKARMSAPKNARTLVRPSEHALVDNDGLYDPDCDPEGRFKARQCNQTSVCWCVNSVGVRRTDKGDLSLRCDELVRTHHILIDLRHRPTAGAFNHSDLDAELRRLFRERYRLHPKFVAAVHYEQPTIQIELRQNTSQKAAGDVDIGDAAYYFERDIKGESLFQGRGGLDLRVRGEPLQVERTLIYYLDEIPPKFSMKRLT
Put plainly: BLI (Octet) [2/2]. How it is done: After allowing for four days of protein expression, cell culture supernatants were collected, quantified by SDS-PAGE analysis (DNS), and the pH dependence of the variant was evaluated using biolayer interferometry (BLI) on an Octet RED 96e instrument. Briefly, cell culture supernatants were diluted based on qualitative expression level of the variant determined by visual examination of SDS-PAGE gels, 5 μL of cell culture supernatant was diluted into 195 μL of 1×PBST, pH 7.4 for high expressors, 25 μL of cell culture supernatant was diluted into 175 μL of 1×PBST, pH 7.4 for medium expressors and 100 μL of cell culture supernatant was diluted into 100 μL of 1×PBST, pH 7.4 for low expressors for loading onto the sensor tips. The resulting diluted supernatants were then captured on an anti-human Fc sensor (Forte Bio). A baseline was established using 1×PBST (50 mM Potassium Phosphate Buffer+150 mM NaCl+0.05% Tween 20) pH 7.4, and the sensor was associated with 50 nM of TROP2 (Human TROP2 Protein, His Tag, Acro Biosystems) in 1×PBST pH 7.4 for 120 sec to generate an association curve. In the dissociation phase, the antibody-antigen complex on the sensor was exposed to 1×PBST pH 7.4 or pH 5.4, for 300 sec. Association and dissociation phase curves were examined for the starting ABPC antibody (with no substitutions) and each corresponding antibody variant at pH 5.4 and pH 7.4 to inform on two criteria: a) enhanced dissociation (i.e., higher koff values) at pH 5.4 due to histidine or alanine substitution compared to the starting ABPC, (with no substitutions), and b) reduced dissociation at pH 7.4 (i.e., lower koff values) compared to pH 5.4 in the antibody variant itself and with the starting ABPC (with no substitutions). […] It was also noted that while some mutations obliterated TROP2 binding, others were tolerated with little or n change in TROP2 binding kinetics.

Assay [2] addresses T2, Human TROP2 Protein, His Tag (Acro Biosystems) (human, UniProt P09758 27-274).
T2 construct: Bought protein; not shown: His tag
T2 sequence (looked up): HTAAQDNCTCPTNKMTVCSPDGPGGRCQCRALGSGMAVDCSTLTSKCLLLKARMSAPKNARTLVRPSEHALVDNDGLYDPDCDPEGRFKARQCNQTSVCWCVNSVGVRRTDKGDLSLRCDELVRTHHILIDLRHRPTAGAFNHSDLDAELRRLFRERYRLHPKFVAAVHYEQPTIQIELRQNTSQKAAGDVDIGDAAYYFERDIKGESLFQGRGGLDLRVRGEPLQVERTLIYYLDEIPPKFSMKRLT
In words: BLI (Octet). On the technique in general: Biolayer interferometry detects binding as a change in optical thickness at a sensor tip.

B1: MYT11768 (antibody, V domains shown)
VH: QVQLQESGPGLVKPSETLSLTCTVSGGSISSYGVHWIRQPPGKGLEWIGVIWTSGVTDYNSALMGRVTISVDTSKNQFSLKLSSVTAADTAVYYCARDGDYDRYTMDYWGQGTLVTVSS
VL: DIVMTQSPDSLAVSLGERATINCRASKSVSTSGYSYMHWYQQKPGQPPKLLIYLASNLESGVPDRFSGSGSGTDFTLTISSLQAEDVAVYYCQHHRELPYTFGQGTKLEIK
notes: hu7E6SVG variant, His at LCV position 95 (L3 03); screened as IgG in Expi293 supernatant
Regarding B1, in assay [1], the binding result is “no binding (tested: 50 nM)”.

B2: MYT11771 (antibody, V domains shown)
VH: QVQLQESGPGLVKPSETLSLTCTVSGGSISSYGVHWIRQPPGKGLEWIGVIWTSGVTDYNSALMGRVTISVDTSKNQFSLKLSSVTAADTAVYYCARDGDYDRYTMDYWGQGTLVTVSS
VL: DIVMTQSPDSLAVSLGERATINCRASKSVSTSGYSYMHWYQQKPGQPPKLLIYLASNLESGVPDRFSGSGSGTDFTLTISSLQAEDVAVYYCQHSREHPYTFGQGTKLEIK
notes: hu7E6SVG variant, His at LCV position 98 (L3 06); screened as IgG in Expi293 supernatant
Consider B2, for which the binding result in assay [1] is recorded as “no binding (tested: 50 nM)”.

B3: MYT11774 (antibody, V domains shown)
VH: QVQLQESGPGLVKPSETLSLTCTVSGGSISSYGVHWIRQPPGKGLEWIGVIWTSGVTDYNSALMGRVTISVDTSKNQFSLKLSSVTAADTAVYYCARDGDYDRYTMDYWGQGTLVTVSS
VL: DIVMTQSPDSLAVSLGERATINCRASKSVSTSGYSYMHWYQQKPGQPPKLLIYLASNLESGVPDRFSGSGSGTDFTLTISSLQAEDVAVYYCQHSRELPYHFGQGTKLEIK
notes: hu7E6SVG variant, His at LCV position 101 (L3 09); screened as IgG in Expi293 supernatant
For the molecule B3, the binding result in assay [1] is “binds”.

B4: MYT11772 (antibody, V domains shown)
VH: QVQLQESGPGLVKPSETLSLTCTVSGGSISSYGVHWIRQPPGKGLEWIGVIWTSGVTDYNSALMGRVTISVDTSKNQFSLKLSSVTAADTAVYYCARDGDYDRYTMDYWGQGTLVTVSS
VL: DIVMTQSPDSLAVSLGERATINCRASKSVSTSGYSYMHWYQQKPGQPPKLLIYLASNLESGVPDRFSGSGSGTDFTLTISSLQAEDVAVYYCQHSRELHYTFGQGTKLEIK
notes: hu7E6SVG variant, His at LCV position 99 (L3 07); screened as IgG in Expi293 supernatant
With B4, the binding result in assay [1] was “binds”.

B5: MYT11622 (antibody, V domains shown)
VH: QVQLQQSGSELKKPGASVKVSCKASGYTFTNYGMNWVKQAPGQGLKWMGWINTYTGEPTYTDDFKGRFAFSLDTSVSTAYLQISSLKADDTAVYFCARGGFGSSYWYFDVWGQGSLVTVSS
VL: DIQLTQSPSSLSASVGDRVSITCKASQDVSIAVAWYQQKPGKAPKLLIYSASHRYTGVPDRFSGSGSGTDFTLTISSLQPEDFAVYYCQQHYITPLTFGAGTKVEIK
notes: Sacituzumab variant, His at LCV position 53 (L2 04)
As to B5, the binding result in assay [2] is “binds”.

B6: MYT11623 (antibody, V domains shown)
VH: QVQLQQSGSELKKPGASVKVSCKASGYTFTNYGMNWVKQAPGQGLKWMGWINTYTGEPTYTDDFKGRFAFSLDTSVSTAYLQISSLKADDTAVYFCARGGFGSSYWYFDVWGQGSLVTVSS
VL: DIQLTQSPSSLSASVGDRVSITCKASQDVSIAVAWYQQKPGKAPKLLIYSASYHYTGVPDRFSGSGSGTDFTLTISSLQPEDFAVYYCQQHYITPLTFGAGTKVEIK
notes: Sacituzumab variant, His at LCV position 54 (L2 05)
Consider B6, for which, in assay [2], the binding result is reported as “binds”.

B7: MYT11624 (antibody, V domains shown)
VH: QVQLQQSGSELKKPGASVKVSCKASGYTFTNYGMNWVKQAPGQGLKWMGWINTYTGEPTYTDDFKGRFAFSLDTSVSTAYLQISSLKADDTAVYFCARGGFGSSYWYFDVWGQGSLVTVSS
VL: DIQLTQSPSSLSASVGDRVSITCKASQDVSIAVAWYQQKPGKAPKLLIYSASYRHTGVPDRFSGSGSGTDFTLTISSLQPEDFAVYYCQQHYITPLTFGAGTKVEIK
notes: Sacituzumab variant, His at LCV position 55 (L2 06)
As for B7, in assay [2], the binding result is “binds”.

B8: MYT11625 (antibody, V domains shown)
VH: QVQLQQSGSELKKPGASVKVSCKASGYTFTNYGMNWVKQAPGQGLKWMGWINTYTGEPTYTDDFKGRFAFSLDTSVSTAYLQISSLKADDTAVYFCARGGFGSSYWYFDVWGQGSLVTVSS
VL: DIQLTQSPSSLSASVGDRVSITCKASQDVSIAVAWYQQKPGKAPKLLIYSASYRYHGVPDRFSGSGSGTDFTLTISSLQPEDFAVYYCQQHYITPLTFGAGTKVEIK
notes: Sacituzumab variant, His at LCV position 56 (L2 07)
In the case of B8, in assay [2], the binding result was “binds”.
